Measurements as given in patent US5708158, “Nuclear factors and binding assays” (Tularik Inc., dated 1998).

Molecular target: T1, NFATc-589 (translated in vitro) (human)
T1 chain: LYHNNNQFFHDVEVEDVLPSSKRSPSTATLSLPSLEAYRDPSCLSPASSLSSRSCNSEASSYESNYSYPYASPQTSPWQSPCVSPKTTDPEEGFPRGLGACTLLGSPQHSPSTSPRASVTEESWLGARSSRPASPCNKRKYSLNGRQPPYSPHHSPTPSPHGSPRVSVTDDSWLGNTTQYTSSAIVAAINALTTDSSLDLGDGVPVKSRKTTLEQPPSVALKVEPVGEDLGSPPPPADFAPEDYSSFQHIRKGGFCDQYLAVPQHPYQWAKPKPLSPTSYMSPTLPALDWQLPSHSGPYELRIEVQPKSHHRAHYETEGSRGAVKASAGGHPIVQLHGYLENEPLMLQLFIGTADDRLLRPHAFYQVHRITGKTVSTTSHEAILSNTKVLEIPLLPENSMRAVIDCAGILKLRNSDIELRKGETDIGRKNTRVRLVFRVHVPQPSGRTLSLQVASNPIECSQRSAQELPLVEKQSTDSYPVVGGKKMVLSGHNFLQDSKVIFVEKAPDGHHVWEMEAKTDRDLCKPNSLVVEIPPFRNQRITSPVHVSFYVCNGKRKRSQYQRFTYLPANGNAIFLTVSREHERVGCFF
Experiment: gel mobility shift assay with two co-translated NFATc versions of different size; test for dimers on DNA
Text: After determining that NFAT rel domains were monomers in solution, we then considered the possibility that NFAT proteins might form dimers when bound to DNA. To address this question we carried out gel mobility shift assays with two different sized versions of NFATc translated in vitro (Hope and Struhl 1987). The shorter version contains the rel similarity region and a small amount of flanking residues and is referred to as NFATc-309. This construct is equivalent to the one that was expressed in *E. coli*. The larger version, NFATc-589, contains additional N-terminal sequences. When expressed individually in a rabbit reticulocyte lysate both versions of NFATc were active and produced protein-DNA complexes with different mobilities. When the two different NFATc proteins were mixed by co-translation the same protein-DNA complexes were apparent and no intermediate species was detectable, as would be expected if the proteins were forming dimers on the DNA.
Electrophoretic mobility shift assays were performed with the indicated amounts of proteins in 50 mM KCl, 25 mM HEPES, 0.05 mM EDTA, 5% glycerol, 1 mM DTT with […] of poly(dI-dC) and 100 ng of BSA. The binding reactions and electrophoresis were carried out at room temperature. The samples were run on a 5% polyacrylamide, 0.5× TBE gel at 200 V.

B1: NFATc-309 (translated in vitro) (other)
chain: MSPTLPALDWQLPSHSGPYELRIEVQPKSHHRAHYETEGSRGAVKASAGGHPIVQLHGYLENEPLMLQLFIGTADDRLLRPHAFYQVHRITGKTVSTTSHEAILSNTKVLEIPLLPENSMRAVIDCAGILKLRNSDIELRKGETDIGRKNTRVRLVFRVHVPQPSGRTLSLQVASNPIECSQRSAQELPLVEKQSTDSYPVVGGKKMVLSGHNFLQDSKVIFVEKAPDGHHVWEMEAKTDRDLCKPNSLVVEIPPFRNQRITSPVHVSFYVCNGKRKRSQYQRFTYLPANGNAIFLTVSREHERVGCFF
B1: no binding.
